Measured values taken from paper PMC9482650, “Quantitative fragmentomics allow affinity mapping of interactomes” (Nature Communications, 2022).

Legend:
Assay in all cases: holdup assay
Set-up in all cases: key: below the threshold = too weak to quantify, mostly under pKd 3.1 to 4
DFNB31_3, Q9P202 = biological target: T1, DFNB31_3, Q9P202
T1 sequence (Q9P202 811-907, limits assumed, looked up): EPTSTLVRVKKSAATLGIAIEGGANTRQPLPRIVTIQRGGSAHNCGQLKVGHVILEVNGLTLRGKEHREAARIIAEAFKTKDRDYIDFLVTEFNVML

HTRA2, O43464 = biological target: HTRA2, O43464
Sequence of HTRA2, O43464 (O43464 355-458): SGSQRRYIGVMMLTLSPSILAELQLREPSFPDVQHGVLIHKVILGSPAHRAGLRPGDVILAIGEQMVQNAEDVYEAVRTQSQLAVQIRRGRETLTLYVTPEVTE

HTRA1, Q92743 = biological target: HTRA1, Q92743
Sequence of HTRA1, Q92743 (Q92743 360-477): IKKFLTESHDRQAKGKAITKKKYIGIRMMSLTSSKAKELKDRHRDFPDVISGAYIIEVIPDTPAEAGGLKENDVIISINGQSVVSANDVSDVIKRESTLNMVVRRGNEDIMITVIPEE

MPDZ_10, O75970 = biological target: T2, MPDZ_10, O75970
T2 sequence (O75970 1624-1722, limits assumed, looked up): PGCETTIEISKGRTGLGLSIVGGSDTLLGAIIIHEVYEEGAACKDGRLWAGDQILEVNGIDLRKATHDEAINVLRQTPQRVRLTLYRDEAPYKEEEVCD

Inadl_1, Q8NI35 = biological target: Inadl_1, Q8NI35
Sequence of Inadl_1, Q8NI35 (Q8NI35 113-229): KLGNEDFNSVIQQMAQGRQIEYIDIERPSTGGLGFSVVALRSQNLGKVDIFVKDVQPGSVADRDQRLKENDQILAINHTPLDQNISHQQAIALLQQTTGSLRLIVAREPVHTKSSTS

HTRA3, P83110 = biological target: T3, HTRA3, P83110
T3 sequence (P83110 354-453, limits assumed, looked up): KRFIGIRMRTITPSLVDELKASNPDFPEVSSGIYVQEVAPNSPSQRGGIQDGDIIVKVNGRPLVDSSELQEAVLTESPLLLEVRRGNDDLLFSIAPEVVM

DLG1_3, Q12959 = biological target: DLG1_3, Q12959
Sequence of DLG1_3, Q12959 (Q12959 457-571): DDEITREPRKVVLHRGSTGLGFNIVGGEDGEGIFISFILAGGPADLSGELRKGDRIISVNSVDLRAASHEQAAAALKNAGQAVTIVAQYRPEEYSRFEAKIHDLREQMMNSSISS

Inadl_4, Q8NI35 = biological target: Inadl_4, Q8NI35
Sequence of Inadl_4, Q8NI35 (Q8NI35 547-651): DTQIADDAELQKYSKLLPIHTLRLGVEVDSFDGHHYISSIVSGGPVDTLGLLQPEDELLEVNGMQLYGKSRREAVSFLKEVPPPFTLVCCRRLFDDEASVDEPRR

GRIP2_4, Q9C0E4 = biological target: GRIP2_4, Q9C0E4
Sequence of GRIP2_4, Q9C0E4 (Q9C0E4 446-548): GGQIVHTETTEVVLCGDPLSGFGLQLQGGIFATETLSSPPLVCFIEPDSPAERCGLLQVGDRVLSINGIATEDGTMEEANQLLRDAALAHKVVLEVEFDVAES

GRID2IP_2, A4D2P6 = biological target: GRID2IP_2, A4D2P6
Sequence of GRID2IP_2, A4D2P6 (A4D2P6 272-370): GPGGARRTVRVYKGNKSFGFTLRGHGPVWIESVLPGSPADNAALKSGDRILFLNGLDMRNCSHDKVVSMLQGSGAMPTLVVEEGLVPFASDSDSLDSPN

LNX2_3, Q8N448 = biological target: T4, LNX2_3, Q8N448
T4 sequence (Q8N448 463-564, limits assumed, looked up): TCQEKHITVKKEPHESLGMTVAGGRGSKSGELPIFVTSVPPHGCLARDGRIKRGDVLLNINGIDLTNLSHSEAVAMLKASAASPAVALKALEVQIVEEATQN

LNX2_2, Q8N448 = biological target: T5, LNX2_2, Q8N448
T5 sequence (Q8N448 334-432, limits assumed, looked up): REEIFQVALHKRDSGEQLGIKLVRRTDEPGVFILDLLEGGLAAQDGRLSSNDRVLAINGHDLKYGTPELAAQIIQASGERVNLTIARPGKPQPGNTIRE

IL16_3, Q14005 = biological target: IL16_3, Q14005
Sequence of IL16_3, Q14005 (Q14005 1107-1207): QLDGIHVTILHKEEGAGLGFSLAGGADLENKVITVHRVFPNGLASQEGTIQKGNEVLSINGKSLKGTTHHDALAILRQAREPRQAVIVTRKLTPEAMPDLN

SNX27, Q96L92 = biological target: SNX27, Q96L92
MAGI3_2, Q5TCQ9 = biological target: MAGI3_2, Q5TCQ9
Sequence of MAGI3_2, Q5TCQ9 (Q5TCQ9 398-503): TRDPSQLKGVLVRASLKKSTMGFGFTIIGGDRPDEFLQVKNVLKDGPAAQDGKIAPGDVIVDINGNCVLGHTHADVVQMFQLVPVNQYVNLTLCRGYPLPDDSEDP

NHERF3_3, Q5T2W1 = biological target: T6, NHERF3_3, Q5T2W1
T6 sequence (Q5T2W1 238-333, limits assumed, looked up): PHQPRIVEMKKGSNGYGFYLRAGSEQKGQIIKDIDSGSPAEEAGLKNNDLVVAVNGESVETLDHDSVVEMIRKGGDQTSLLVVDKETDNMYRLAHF

DFNB31_2, Q9P202 = biological target: T7, DFNB31_2, Q9P202
T7 sequence (Q9P202 274-371, limits assumed, looked up): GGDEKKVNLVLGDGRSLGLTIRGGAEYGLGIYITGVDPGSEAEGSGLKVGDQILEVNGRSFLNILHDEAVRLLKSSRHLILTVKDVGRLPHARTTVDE

TJP1_2, Q07157 = biological target: TJP1_2, Q07157
Sequence of TJP1_2, Q07157 (Q07157 181-274): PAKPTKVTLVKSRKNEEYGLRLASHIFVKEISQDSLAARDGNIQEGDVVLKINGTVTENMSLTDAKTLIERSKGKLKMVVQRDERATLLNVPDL

PICK1, Q9NRD5 = biological target: PICK1, Q9NRD5
Sequence of PICK1, Q9NRD5 (Q9NRD5 17-115): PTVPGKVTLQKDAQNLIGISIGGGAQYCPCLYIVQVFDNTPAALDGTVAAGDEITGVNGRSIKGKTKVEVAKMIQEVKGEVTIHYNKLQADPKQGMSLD

APBA2_2, Q99767 = biological target: T8, APBA2_2, Q99767
T8 sequence (Q99767 654-744, limits assumed, looked up): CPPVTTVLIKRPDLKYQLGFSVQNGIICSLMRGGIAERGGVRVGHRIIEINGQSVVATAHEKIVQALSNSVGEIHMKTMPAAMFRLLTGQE

Inadl_5, Q8NI35 = biological target: Inadl_5, Q8NI35
Sequence of Inadl_5, Q8NI35 (Q8NI35 673-780): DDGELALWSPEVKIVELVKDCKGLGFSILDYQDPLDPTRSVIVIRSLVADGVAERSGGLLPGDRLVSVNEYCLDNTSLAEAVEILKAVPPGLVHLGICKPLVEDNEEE

GRIP2_5, Q9C0E4 = biological target: GRIP2_5, Q9C0E4
Sequence of GRIP2_5, Q9C0E4 (Q9C0E4 544-642): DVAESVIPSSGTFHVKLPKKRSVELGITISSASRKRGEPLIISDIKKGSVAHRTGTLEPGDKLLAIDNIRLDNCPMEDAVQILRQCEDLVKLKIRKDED

GORASP2, Q9H8Y8 = biological target: GORASP2, Q9H8Y8
MAGI1_1, Q96QZ7 = biological target: MAGI1_1, Q96QZ7
Sequence of MAGI1_1, Q96QZ7 (Q96QZ7 1-106): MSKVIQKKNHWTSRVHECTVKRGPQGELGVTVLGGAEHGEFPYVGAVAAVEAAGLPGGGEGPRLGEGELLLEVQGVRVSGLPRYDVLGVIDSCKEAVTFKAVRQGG

TJP1_3, Q07157 = biological target: TJP1_3, Q07157
Sequence of TJP1_3, Q07157 (Q07157 416-512): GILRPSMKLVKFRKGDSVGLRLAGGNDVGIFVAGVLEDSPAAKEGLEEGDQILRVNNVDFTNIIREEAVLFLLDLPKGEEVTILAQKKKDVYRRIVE

Inadl_9, Q8NI35 = biological target: Inadl_9, Q8NI35
Sequence of Inadl_9, Q8NI35 (Q8NI35 1530-1615): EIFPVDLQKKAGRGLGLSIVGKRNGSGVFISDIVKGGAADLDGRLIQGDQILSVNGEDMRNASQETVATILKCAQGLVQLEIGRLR

ARHGEF11, O15085 = biological target: T9, ARHGEF11, O15085
T9 sequence (O15085 42-136, limits assumed, looked up): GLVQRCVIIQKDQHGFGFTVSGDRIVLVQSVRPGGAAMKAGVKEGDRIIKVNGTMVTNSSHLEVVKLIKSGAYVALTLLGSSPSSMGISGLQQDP

GOPC, Q9HD26 = biological target: GOPC, Q9HD26
MAST1, Q9Y2H9 = biological target: MAST1, Q9Y2H9
Sequence of MAST1, Q9Y2H9 (Q9Y2H9 962-1065): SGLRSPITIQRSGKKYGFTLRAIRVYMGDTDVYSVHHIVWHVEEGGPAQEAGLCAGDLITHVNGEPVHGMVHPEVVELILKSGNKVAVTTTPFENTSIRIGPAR

[1] = plain residues with an end cap or a label only (N-terminal biotin on a linker: ttds)
[2] = plain residues with an end cap or a label only (N-terminal biotin on a linker: gsgsgs; C-terminal amide)

## RPLPRKVSQL [DOCK4, Q8N1I0]
DFNB31_3, Q9P202; [1]
  pKd: below the threshold
HTRA2, O43464; [1]
  pKd: below the threshold
HTRA1, Q92743; [1]
  pKd: below the threshold
MPDZ_10, O75970; [1]
  pKd: below the threshold
Inadl_1, Q8NI35; [1]
  pKd: below the threshold
HTRA3, P83110; [1]
  pKd: below the threshold
DLG1_3, Q12959; [1]
  pKd: 3.84
Inadl_4, Q8NI35; [1]
  pKd: below the threshold
GRIP2_4, Q9C0E4; [1]
  pKd: below the threshold
GRID2IP_2, A4D2P6; [1]
  pKd: 4.19
LNX2_3, Q8N448; [1]
  pKd: below the threshold
LNX2_2, Q8N448; [1]
  pKd: below the threshold
IL16_3, Q14005; [1]
  pKd: below the threshold
SNX27, Q96L92; [1]
  pKd: below the threshold
MAGI3_2, Q5TCQ9; [1]
  pKd: 4.69
NHERF3_3, Q5T2W1; [1]
  pKd: below the threshold
DFNB31_2, Q9P202; [1]
  pKd: below the threshold
TJP1_2, Q07157; [1]
  pKd: below the threshold
PICK1, Q9NRD5; [1]
  pKd: below the threshold
APBA2_2, Q99767; [1]
  pKd: below the threshold
Inadl_5, Q8NI35; [1]
  pKd: below the threshold
GRIP2_5, Q9C0E4; [1]
  pKd: below the threshold
GORASP2, Q9H8Y8; [1]
  pKd: 4.85
MAGI1_1, Q96QZ7; [1]
  pKd: below the threshold
TJP1_3, Q07157; [1]
  pKd: below the threshold
Inadl_9, Q8NI35; [1]
  pKd: below the threshold
ARHGEF11, O15085; [1]
  pKd: 3.62
GOPC, Q9HD26; [1]
  pKd: 4.03
MAST1, Q9Y2H9; [1]
  pKd: 3.86

## YGIVQETTFDLGGDIH [MLLT4_int, P55196]
DFNB31_3, Q9P202; [2]
  pKd: 3.83
HTRA2, O43464; [2]
  pKd: below the threshold
HTRA1, Q92743; [2]
  pKd: below the threshold
MPDZ_10, O75970; [2]
  pKd: below the threshold
Inadl_1, Q8NI35; [2]
  pKd: below the threshold
HTRA3, P83110; [2]
  pKd: below the threshold
DLG1_3, Q12959; [2]
  pKd: below the threshold
Inadl_4, Q8NI35; [2]
  pKd: below the threshold
GRIP2_4, Q9C0E4; [2]
  pKd: below the threshold
GRID2IP_2, A4D2P6; [2]
  pKd: below the threshold
LNX2_3, Q8N448; [2]
  pKd: below the threshold
LNX2_2, Q8N448; [2]
  pKd: below the threshold
IL16_3, Q14005; [2]
  pKd: below the threshold
SNX27, Q96L92; [2]
  pKd: 4.59
MAGI3_2, Q5TCQ9; [2]
  pKd: below the threshold
NHERF3_3, Q5T2W1; [2]
  pKd: below the threshold
DFNB31_2, Q9P202; [2]
  pKd: below the threshold
TJP1_2, Q07157; [2]
  pKd: below the threshold
PICK1, Q9NRD5; [2]
  pKd: below the threshold
APBA2_2, Q99767; [2]
  pKd: below the threshold
Inadl_5, Q8NI35; [2]
  pKd: below the threshold
GRIP2_5, Q9C0E4; [2]
  pKd: below the threshold
GORASP2, Q9H8Y8; [2]
  pKd: below the threshold
MAGI1_1, Q96QZ7; [2]
  pKd: below the threshold
TJP1_3, Q07157; [2]
  pKd: below the threshold
Inadl_9, Q8NI35; [2]
  pKd: below the threshold
ARHGEF11, O15085; [2]
  pKd: below the threshold
GOPC, Q9HD26; [2]
  pKd: below the threshold
MAST1, Q9Y2H9; [2]
  pKd: below the threshold

## FHPLGADSQV [SLC2A1, P11166]
DFNB31_3, Q9P202; [1]
  pKd: below the threshold
HTRA2, O43464; [1]
  pKd: below the threshold
HTRA1, Q92743; [1]
  pKd: below the threshold
MPDZ_10, O75970; [1]
  pKd: below the threshold
Inadl_1, Q8NI35; [1]
  pKd: 3.49
HTRA3, P83110; [1]
  pKd: below the threshold
DLG1_3, Q12959; [1]
  pKd: below the threshold
Inadl_4, Q8NI35; [1]
  pKd: below the threshold
GRIP2_4, Q9C0E4; [1]
  pKd: below the threshold
GRID2IP_2, A4D2P6; [1]
  pKd: below the threshold
LNX2_3, Q8N448; [1]
  pKd: below the threshold
LNX2_2, Q8N448; [1]
  pKd: below the threshold
IL16_3, Q14005; [1]
  pKd: below the threshold
SNX27, Q96L92; [1]
  pKd: 4.05
MAGI3_2, Q5TCQ9; [1]
  pKd: below the threshold
NHERF3_3, Q5T2W1; [1]
  pKd: below the threshold
DFNB31_2, Q9P202; [1]
  pKd: below the threshold
TJP1_2, Q07157; [1]
  pKd: below the threshold
PICK1, Q9NRD5; [1]
  pKd: below the threshold
APBA2_2, Q99767; [1]
  pKd: below the threshold
Inadl_5, Q8NI35; [1]
  pKd: below the threshold
GRIP2_5, Q9C0E4; [1]
  pKd: below the threshold
GORASP2, Q9H8Y8; [1]
  pKd: below the threshold
MAGI1_1, Q96QZ7; [1]
  pKd: below the threshold
TJP1_3, Q07157; [1]
  pKd: below the threshold
Inadl_9, Q8NI35; [1]
  pKd: below the threshold
ARHGEF11, O15085; [1]
  pKd: below the threshold
GOPC, Q9HD26; [1]
  pKd: below the threshold
MAST1, Q9Y2H9; [1]
  pKd: below the threshold
